According to US20250382344A1, “Soluble GLP1/GIP/NPY2 Receptor Triple Agonists” (Boehringer Ingelheim International GmH, priority 2024, published 2025):
*1 amine or outer side, *2 acyl side, *3 side chain or, on linkers, in order; H or OH if unused. Where no end group is shown, it is not given here. Side-chain parts run from the residue outwards. [ ]: non-standard residue; d: D form. The star is where a group is joined. C20 diacid = O=C(O)CCCCCCCCCCCCCCCCCCC(=O)*; C18 diacid = O=C(O)CCCCCCCCCCCCCCCCC(=O)*; γGlu = O=C(O)[C@H](CCC(=O)[*:2])N[*:1]; εLys = N[C@@H](CCCCN[*:1])C(=O)[*:2]; TRX = not defined here; AEEA = NCCOCCOCC(=O)O; Aib = CC(C)(N)C(=O)O

T1: human neuropeptide Y2 receptor (human, UniProt P49146 1-381)
T1 sequence (looked up): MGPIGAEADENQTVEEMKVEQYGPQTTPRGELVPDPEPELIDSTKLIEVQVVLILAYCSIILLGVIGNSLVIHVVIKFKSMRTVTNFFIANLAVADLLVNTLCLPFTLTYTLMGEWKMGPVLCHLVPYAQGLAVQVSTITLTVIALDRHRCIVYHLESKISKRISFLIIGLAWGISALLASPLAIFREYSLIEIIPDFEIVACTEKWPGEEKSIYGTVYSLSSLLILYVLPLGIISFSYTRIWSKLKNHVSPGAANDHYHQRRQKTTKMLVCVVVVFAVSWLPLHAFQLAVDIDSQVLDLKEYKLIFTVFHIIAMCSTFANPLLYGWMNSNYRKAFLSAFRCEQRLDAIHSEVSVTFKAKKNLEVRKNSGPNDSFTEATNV

T2: human GIP receptor (human, UniProt P48546 22-466)
T2 sequence (looked up): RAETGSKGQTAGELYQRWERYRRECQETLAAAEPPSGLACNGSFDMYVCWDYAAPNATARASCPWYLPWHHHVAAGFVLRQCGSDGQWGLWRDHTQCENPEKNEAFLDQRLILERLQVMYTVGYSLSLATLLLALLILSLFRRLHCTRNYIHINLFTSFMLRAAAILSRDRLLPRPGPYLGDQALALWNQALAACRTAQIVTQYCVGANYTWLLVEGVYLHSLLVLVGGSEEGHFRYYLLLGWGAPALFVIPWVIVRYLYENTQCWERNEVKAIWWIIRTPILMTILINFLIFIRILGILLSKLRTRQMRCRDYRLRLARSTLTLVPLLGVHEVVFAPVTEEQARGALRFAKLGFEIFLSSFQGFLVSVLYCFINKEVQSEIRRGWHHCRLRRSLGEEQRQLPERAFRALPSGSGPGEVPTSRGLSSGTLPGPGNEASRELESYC


Tests used:
[1] = biological target: T1, human neuropeptide Y2 receptor; test: cell-based or functional assay
[2] = biological target: T2, human GIP receptor; test: cell-based or functional assay

Row | Binder | EC50, CreLuc reporter, 0.5% hP [1] [nM] | EC50, CreLuc reporter, 100% hP [1] [nM] | EC50, CreLuc reporter, 0.5% hP [2] [nM] | EC50, CreLuc reporter, 100% hP [2] [nM]
1 | Y[Aib]EGTFTSDYSI[Aib]LEKQAQ[Aib]AFVRHLINK([γGlu-γGlu-AEEA-γGlu-γGlu-γGlu-γGlu-C20 diacid])[Aib]TRQRY-NH2 [Compound 136] | 38.5 | 123 | 0.5 | 9.1
2 | Y[Aib]EGTFTSDYSI[Aib]LEKQAQ[Aib]AFVRHLINK([AEEA-γGlu-γGlu-γGlu-γGlu-γGlu-γGlu-C20 diacid])[Aib]TRQRY-NH2 [Compound 99] | 16.7 | 125 | 0.5 | 9
3 | Y[Aib]EGTFTSDYSI[Aib]LDEQAQ[Aib]AFVRHLINK([εLys-γGlu-γGlu-γGlu-γGlu-γGlu-C20 diacid])[Aib]TRQRY-NH2 [Compound 138] | – | – | 0.5 | 11.5
4 | Y[Aib]EGTFTSDYSI[Aib]LEKQAE[Aib]AFVRHLINK([εLys-γGlu-AEEA-γGlu-γGlu-γGlu-γGlu-C20 diacid])[Aib]TRQRY-NH2 [Compound 148] | – | – | 0.8 | –
5 | Y[Aib]EGTFTSDYSI[Aib]LEKQAQ[Aib]AFVRHLINK([γGlu-γGlu-γGlu-γGlu-γGlu-γGlu-TRX-C20 diacid])[Aib]TRQRY-NH2 (reading uncertain) [Compound 133] | 44.9 | 246 | – | 3.4
6 | Y[Aib]EGTFTSDLSI[Aib]LEKQAQ[Aib]AFVRHLINK([εLys-γGlu-γGlu-γGlu-γGlu-γGlu-γGlu-γGlu-C20 diacid])[Aib]TRQRY-NH2 [Compound 135] | 18.8 | 47.8 | 0.5 | 5.8
7 | Y[Aib]EGTFTSDYSI[Aib]LDEQAQ[Aib]AFVRHLINK([εLys-εLys-γGlu-γGlu-γGlu-γGlu-γGlu-C20 diacid])[Aib]TRQRY-NH2 [Compound 155] | 6 | 63.1 | 0.7 | 6.1
8 | YXEGTFTSDYSIXLEKQAQEAFVRHLINKXTRQRY (Aib at 2, 13, 30; Lys29 epsilon-amino: C18DA-gGlu-gGlu-gGlu-gGlu-gGlu-gGlu-eLys; C-terminal amide) [Compound 170] | 43.8 | 244 | 0.4 | –
9 | YXEGTFTSDYSIXLEKQAQXAFVRHLINKLTRQRY (Aib at 2, 13, 20; Lys29 epsilon-amino: C18DA-gGlu-gGlu-gGlu-gGlu-gGlu; C-terminal amide) [Compound 158] | 26 | 149 | 0.5 | 14.4
10 | YXEGTFTSDYSIXLEKQAQXAFVRHLINKXTRQRY (Aib at 2, 13, 20, 30; Lys29 epsilon-amino: C20DA-gGlu-gGlu-gGlu-gGlu-gGlu-AHX-AHX; C-terminal amide) [Compound 106] | 7.1 | 41.7 | – | 4.7
11 | YXEGTFTSDYSIXLEKQAQXAFVRHLINKXTRQRY (Aib at 2, 13, 20, 30; Lys29 epsilon-amino: C18DA-gGlu-gGlu-gGlu-gGlu-gGlu-OEG; C-terminal amide) [Compound 140] | 22 | 141 | – | 8
12 | YXEGTFTSDYSIXLDKQAQXAFVRYLINKXTRQRY (Aib at 2, 13, 20, 30; Lys29 epsilon-amino: C18DA-gGlu-gGlu-gGlu-gGlu-gGlu-gGlu-eLys; C-terminal amide) [Compound 153] | 40 | 65.5 | 0.1 | –
13 | YXEGTFTSDYAIXLEKQAQXAFVRHLINKXTRQRY (Aib at 2, 13, 20, 30; Lys29 epsilon-amino: C18DA-gGlu-gGlu-gGlu-gGlu-gGlu-gGlu-eLys; C-terminal amide) [Compound 142] | 17.4 | 31.8 | 0.3 | 3.4
14 | YXEGTFTSDYSIXLEKQAQXAFVRHLINKXTRQRX (Aib at 2, 13, 20, 30; Phe4F at 35; Lys29 epsilon-amino: C18DA-gGlu-gGlu-gGlu-gGlu-gGlu-gGlu-eLys; C-terminal amide) [Compound 86] | 33.2 | 162 | 0.3 | 5.9
15 | YXEGTFTSDYSIXLEKQAQXAFVRHLINKATRQRY (Aib at 2, 13, 20; Lys29 epsilon-amino: C18DA-gGlu-gGlu-gGlu-gGlu-gGlu-gGlu-eLys; C-terminal amide) [Compound 159] | 11.5 | 57.5 | 0.2 | –
16 | YXEGTFTSDYSIXLEKQAQXSFVRHLINKXTRQRY (Aib at 2, 13, 20, 30; Lys29 epsilon-amino: C18DA-gGlu-gGlu-gGlu-gGlu-gGlu-gGlu-eLys; C-terminal amide) [Compound 144] | – | – | 0.4 | 4.8
17 | YXEGTFTSDYSIXLEKQAQXAFVRHLINKVTRQRY (Aib at 2, 13, 20; Lys29 epsilon-amino: C18DA-gGlu-gGlu-gGlu-gGlu-gGlu-gGlu-eLys; C-terminal amide) [Compound 126] | – | – | 0.4 | –
18 | YXEGTFTSDYSIXLEGQAQXAFVRHLINKXTRQRY (Aib at 2, 13, 20, 30; Lys29 epsilon-amino: C18DA-gGlu-gGlu-gGlu-gGlu-gGlu-gGlu-eLys; C-terminal amide) [Compound 95] | 58 | 96.3 | – | 9.3
19 | YXEGTFTSDYSIXLEKQAQYAFVRHLINKXTRQRY (Aib at 2, 13, 30; Lys29 epsilon-amino: C18DA-gGlu-gGlu-gGlu-gGlu-gGlu-gGlu-eLys; C-terminal amide) [Compound 151] | 32.6 | 89.8 | 0.5 | 5.6
20 | YXEGTFTSDYSILLEKQAQXAFVRHLINKXTRQRY (Aib at 2, 20, 30; Lys29 epsilon-amino: C18DA-gGlu-gGlu-gGlu-gGlu-gGlu; C-terminal amide) [Compound 122] | 60.8 | 284 | 0.1 | 4.5
21 | YXEATFTSDYSIXLEKQAQXAFVRHLINKXTRQRY (Aib at 2, 13, 20, 30; Lys29 epsilon-amino: C18DA-gGlu-gGlu-gGlu-gGlu-gGlu-gGlu-eLys; C-terminal amide) [Compound 93] | – | 24.8 | – | 17.6
22 | YXEGTFTSDYSIXLEKQAQXAFVRHLINKLTRQRY (Aib at 2, 13, 20; Lys29 epsilon-amino: C18DA-gGlu-gGlu-gGlu-gGlu-gGlu-gGlu-eLys; C-terminal amide) [Compound 127] | 10.3 | 76.9 | – | 16.7
23 | YXEGTFTSDYSIXLEKQAQXAFVRHAINKXTRQRY (Aib at 2, 13, 20, 30; Lys29 epsilon-amino: C18DA-gGlu-gGlu-gGlu-gGlu-gGlu-gGlu-eLys; C-terminal amide) [Compound 139] | – | 22.7 | 12.2 | 22.3
24 | YXEGTFTSDYSIXLEKQAQXAFVRHLINKXTRQRY (Aib at 2, 20, 30; aMeL at 13; Lys29 epsilon-amino: C20DA-gGlu-gGlu-gGlu-gGlu-gGlu-gGlu-eLys; C-terminal amide) [Compound 150] | – | 90.7 | – | 2.8
25 | YXEGTFTSDYSIXLEKAAQXAFVRHLINKXTRQRY (Aib at 2, 13, 20, 30; Lys29 epsilon-amino: C18DA-gGlu-gGlu-gGlu-gGlu-gGlu-gGlu-eLys; C-terminal amide) [Compound 143] | – | – | 0.3 | –
26 | Y[Aib]EGTFTSDYSI[Aib]LEKQAE[Aib]AFVRHLINK([εLys-γGlu-γGlu-AEEA-γGlu-γGlu-γGlu-C20 diacid])[Aib]TRQRY-NH2 [Compound 162] | – | 43.8 | 0.7 | –
27 | Y[Aib]EGTFTSDYSI[Aib]LEKQAQ[Aib]AFVRHLINK([εLys-γGlu-γGlu-γGlu-γGlu-γGlu-γGlu-γGlu-C18 diacid])[Aib]TRQRY-NH2 [Compound 121] | 13.8 | – | – | 2.8
28 | Y[Aib]EGTFTSDYSI[Aib]LDKQAQ[Aib]EFVRHLINK([εLys-γGlu-γGlu-γGlu-γGlu-γGlu-C18 diacid])[Aib]TRQRY-NH2 [Compound 113] | – | – | 0.2 | 5.5
